The record followed here is a protein production outcome set (Wang et al. 2014).

The data set in a line: label from the status in PepcDB records.
For the sequence “MSFIVCMSVLGVLLMLLALTSSYLRWMPVTTSAVCLAFGFGIGPLGLDIINLDFKQSREWLECLTEVAVLFSLFGTGIKLRLPLNCKAWHSAYWLAGPVMLATIAGVSVAAHYIFAIDWGVALLLGAMLSPTDPVLAGMVQVNSAQDQDRLRFGLSGEAGLNDGTAFPFVIFAMLYLSSGGVTGDWAQHWLLKDLIWAVPAGLLIGFGMGRGVGHLMIFLRIKNADSTTSPNDFLALALIALAYVVAEGFGAFGFLSVFAAGFGLRQAEMRVTRSELPSEHVAQPVLGHMTAALDQGTVAKADDLSDSQLAAGVMMGDMLAFGSLVERAMEVLLITLLGAALASYWDWRAIGLGLALFCVIRPASVWLLVSQKLLNARQKALVGWFGIRGIGSLYYLCFALSHGLADDVGNVVIGMTLSVVALSILLHGISIQPLLERYERSTAANPDK”, the protein production result is recorded as “failed”.
Then “MSFVKKTKNFFGLDGEADPYMEHSDAYYDEPRYEPAPAYSAPRYEEPIYASARPRAARPMPTHIVPVRLLTYSDAAIKVGDPFRDGDAVVFDMSDMHKGEAKRIIDFAAGLCFALRGQMRKLDGRIFALVPESASVDENDLKHAAGLIHLEHHHHHH”, with “failed”; and “MSGADTKKKLVGRHKRVAFMDVAGDGKTYTRMTGFTSMSESKNASEYSRHYVDEESERTDVVGYAPSNDYEFDRYTNDLVQQKISEITDDELLGSDAQVSIVVVDLFDIKTDTPNTCVARKRDWSVVPDNSGDGTDALIYKGSLKANGEKIKGTATTTDNWQTCTFAAD”, with “failed”; and “MSGGPVKTPFLSFIIPAYNEEQRLPSYLERVIGFFAGQSYSFEIVVVDDGSSDGTAALVKALMAQHSCLRLEALDRNRGKGFAVKTGMSAAKGQLRVFADADGATPVEEIRRLLDAREQGADIAIGSRAMRSDECIVQGRVHRKIMGTVFNGLIRALAVRGIHDSQCGFKLFTASAAEDIFPRQRITGFGFDVELLFLARRLGYVVVEVPVNWSDVEGTKVRLVRDSFRMLGEVLRIRFTNLTGGYGDIPGKTLEHHHHHH”, with “failed”.
With “MSGIIATYLIHDDSHNLEKKAEQIALGLTIGSWTHLPHLLQEQLKQHKGNVIHVEELAEHEHTNSYLRKKVKRGIIKIEYPLLNFSPDLPAILTTTFGKLSLDGEVKLIDLTFSDELKKHFPGPKFGIDGIRNLLQVHDRPLLMSIFKGMIGRNIGYLKTQLRDQAIGGVDIVKDDEILFENALTPLTKRIVSGKEVLQSVYETYGHKTLYAVNLTGRTFDLKENAKRAVQAGADILLFNVFAYGLDVLQSLAEDDEIPVPIMAHPAVSGAYSASKLYGVSSPLLLGKLLRYAGADFSLFPSPYGSVALEKEEALAISKYLTEDDASFKKSFSVPSAGIHPGFVPFIVRDFGKDVVINAGGGIHGHPNGAQGGGKAFRTAIDATLQNKPLHEVDDINLHSALQIWGNPSYEVKL”, the protein production result is recorded as “not failed”.
Then “MSGKTSITSRSDEFQRQIDHKEMPRDHQIERHTHIHTTRYRGGSLVEEVIEKLERFKVRTVNILVGGEDDEQKK”, with “failed”; and “MSGLAQRSDDPWLAALPAAVLYGAWAAYANQDGGLAGMGVAALLQGAASLLATRFGLYLLQCLGRRHGLAQRQAPLLVVLLLTAPMAALHWLSGTPHPLASVAPSFVIGWLYFALWARRRPGRRQASGA”, with “failed”.
Regarding “MSGLVTGREIVQTARDENVPFMGASIAYYAIASIVPLLALLLAALSTFGGTVTLLELLRTVLSENGQVILTELLENTRGHGATGTLSLVLVVWSGSKVFRSLSVAFTEVYGEVTDISLPAQLVRSAVVMGVLLGAVVFLSATSVALTYVKFQVPYPTLVGNVAAFAALGVAFVPIYYVLPPVKTSLTHVAPGALFAAAGWITIQVGFFYYAGTAGRYAAYGYLGALLLFVTALYLAAIVLLLGVVVNATLDW”, the protein production result is recorded as “failed”.
“MSGMSAAARWTLIASVIAGVSYVASWGLTLPPGVETAWKGAGVGLLAIHAALRARSLDGWLLAAVMALGTGGDVLLETHGLTVGAISFLLGHVVASGLYLRHRNAVSLAPLALIPVVVAVSFLLPTDRAGAPGIALYSLFLAVMAAMALMSRFPFKTVGLGALMFVVSDLLIFGRLGPLPDNLATGLGVWGLYYFGQLLICLGVAGALAHPSTDLPGEGRGPDSA”: the protein production entry is reported as “failed”.
As to “MSGPERLLTRAPTHRPERPRLTLVSRRVMRTIGWLLLLIGGLAGGLSSAAGQPSAPPDTIRGDAVAPSPAPASGDLAGQGGALEATPLFYVAEDAATLHNRSGLNAPVTRLAMRTPVRRLSCEADWCRVRTDGGTTGYVAADALSNVWIRVSKRKRRVYVYRGAELAHAFEADMAYNAFADKKRNGGKTRPDHWRTPEGTFYVVHKNPQSEFYKALVLNYPKVEDARRGLDAGLISRAQYEAIRQAQQEHRMPPMGTDLGGWIEIHGDGTGDATAWTQGCVAIRNGAMDVIWEQVRVGTPVLIE”, the protein production entry is “failed”.
Then “MSGPRAGFYRQELNKTVWEVPQRLQGLRPVGSGAYGSVCSAYDARLRQKVAVKKLSRPFQSLIHARRTYRELRLLKHLKHENVIGLLDVFTPATSIEDFSEVYLVTTLMGADLNNIVKCQAGAHQGARLALDEHVQFLVYQLLRGLKYIHSAGIIHRDLKPSNVAVNEDCELRILDFGLARQADEEMTGYVATRWYRAPEIMLNWMHYNQTVDIWSVGCIMAELLQGKALFPGSDYIDQLKRIMEVVGTPSPEVLAKISSEHARTYIQSLPPMPQKDLSSIFRGANPLAIDLLGRMLVLDSDQRVSAAEALAHAYFSQYHDPEDEPEAEPYDESVEAKERTLEEWKELTYQEVLSFKPPEPPKPPGSLEIEQ”, with “failed”; and “MSGQTFEKIGGMFLDKQRKEGKSKATLDKTAYHLKLANHDFGKKPITAITAPMILRTLRKVEAKGNYETAHRLRARIGSVFRYAVASGLAETDPTYALRDALIRPTRQHLEHHHHHH”, with “failed”; and “MSGRHLMYLDYLVPSWHEIESRVIAMVGYQSGGQFRTSLNEEVASLGLNLRRIEAVRTAFYHAEWQAAHMLRQRFADLDINSIIDELLRVVQQMAMIVVGSTITGGLLGATVGAFAGGAGTIPLAGAGAVMGLKVSGWILGALGLASIAEFFVEGLPRIGG”, with “failed”.
Take “MSGSNSSNHLHEREGTSEESREQSHKHSGLFNPRLFLHSLSHKFSHTPFHKHSHVHPHEHSHGHSHTHGRVDPSIIATQKGLWAVKWSFIGLMVTAVLQIFIVIMSGSVALLADTIHNFGDASTAIPLAIAFTLARRKPSKRFSYGYGRVEDLAGVIIVFLILFSAAVAGYESVTRFLNPRPVEHLQAVALAAIIGCIGNEVVAQFRMKVGKEIGSAALIADGYHARMDGFTSLAVLVGAVGVWLGYPILDPLIGMLITIAILKIVLDSSKLVFTRLLDGVEPEVLDQVKAIAEGVEGVCEVTDLRVRWIGHRLHAEINASVDPSLSVEEGHEIANAVREKLLENFSYLSGTTIHVDPVTASGECCHCGSESPDKRLGRQKRVLNVYPG”: the protein production entry is “failed”.
For the sequence “MSHALRAVFLDHASLDLGDLDMRPLRAAFDELQLHAASQPQEVAARLHDARVAISNKVPIDAQCIAACPELELILISATGTNNIDLAAARERGIVVANCHGYGTPSVAQHTLALLLALATRLPDYQQAVRSGRWQQSSQFCLLDFPIVELEGKTLGLLGHGELGGAVARLAEAFGMRVLLGQLPGRPARADRLPLGELLPRVDALTLHCPLTEDTRGMLGSAELALMKPGAFLVNTARGGLVDEQALADALRGGHLGGAATDVLSVEPPRNGNPLLAPDIPRLIVTPHNAWGSREARQRIVGQLAENAEAWKAGR”, the protein production result is recorded as “failed”.
Consider “MSHGIKLLVSGDHACFTRPEMKAERVSYDVMTPSAARGILEAIHWKPAITWVIDAIHVLKPIRFQTLRRNEVGGKVPAGKVKSAMTKGTLDGLALLADEDRQQRATTLLVDVAYVIEAHFTLTDKAGPEDNPGKHLDIFTRRARKGQCFHQPCLGTREFPARFELIDGDRPIPAAVNRSEDLGFMLWDIDHAGDRSSMFFRARMDRGVVRVPAPSSAEIRR”, for which the protein production result was “failed”.
Then “MSHNEESPGIGPGAGGQDSTTALIEAINIRSMSLIVLTSIASLYFIEWAQPVLLPLVVAVLISYALDPLVATLDRIHIPRPLGAALVLCTLIAILAAASVPLKQEAMAMLDKIPQAIKELQREDASTSEDEESIMEKAQIAAKQIEETAENREGKPAVQAGVTPVRVVDEPMDVRDYVIRNSPATIVLISQMFSVLLLVFFLLSVGKLYRRKIVRISGPSFRRMRKAARIMNELHHQVRRFLFVMVISALFVGILTWLAFLLLGVEQAALWGVVAGIASGVPYLGPFLVLVGSGVAAFLQFGELNTAVIVALTSLVITSIQGNLLMPWLTSYVSSLNAVAIFIGLLFWGWLWGPVGLIVATPILMIAKSVCDHVVNFRPVGELLGK”, with “failed”; and “MSHPHPELGRPPALPKGGLRVTPLGGLGEIGRNMTVFEYGGRLLIVDCGVLFPEEEQPGIDLILPDFTSIRDRLDDIEGIVLTHGHEDHIGGVPFLLREKPDIPLIGSKLTLALIEAKLQEHRIRPYTLEVAEGHRERVGPFDCEFVAVNHSIPDALAVAIRTPAGMVVHTGDFKMDQLPLDGRLTDLHAFARLSEEGIDLLLADSTNAEVPGFVPPERDISNVLRQVFANARKRIIVASFASHVHRIQQILDAAHEYGRRVAFVGRSMVRNMGIARDLGYLKVPPGLVVDVKTLDDLPDSEVVLVCTGSQGEPMAALSRMANRDHQIRIVNGDTVILASSLIPGNENAVYRVINGLTRWGANVVHKGNAKVHVSGHASAGELLYFYNICRPKNLMPVHGEWRHLRANAELGALTGVPHDRIVIAEDGVVVDLVEGKAKITGKVQAGYVYVDGLSVGDVGEPALKDRKILGDEGIISVFVVMDSSTGKITGGPHVQARGSGIEDSAFAAVLPKVTEALERSAQDGVVEPHQMQQLIRRTLGKWVSDTYRRRPMILPVVVEV”, with “failed”.
Then “MSHSVEAEDNKLVKTFKDIIPLTFGEEIGNSVSHGVAAFIALCALPYAAIHSFLEYGVLGAFSVSVYVISIFLMFISSTVYHAMPNQSSHKFILRIIDHSMIYVAIAGTYTPICLTLVGGWIGWSSMVVLWGITIWGILYKSLAKNVNHKLSLIMYLVMGWIGVLFLPTIIFDSSLLFMLFILFGGLAYTIGAWFYAQKNRPYFHMIWHFFIIVASVFHFVAIMYFM”, with “failed”; and “MSHTAEIPMVPGSESPLELKPLKAVDPKAVYHRRAQRLLSLAKDSPLADYFELCRRVVAIQARLAAEADFGQLLAWGKDEAIPLSHLGSEADSYWQGLLQQLLSDLLPQVGEDLARVLRLLMQQSPEQLTSWGASLRQGHMSAVPARFSLFIWAAMGVYWSHWAPMVIKRIDQRKVAQQNLCPICGSHPVASVIVDQPRAGLRYLHCSLCESEWHYIRAHCTSCGQDKGTTLWSFDDTQAQVRIESCDECHGYTKMMFVEKSPLMDVVADDLATLMLDSELNAKGFGATTVNPLLLAHETEQ”, with “failed”; and “MSHVSLQEFLKTEPDGTLEVVAEQYNTTLLEVVRNLPSSTVVPGDKFDTVWDTVCEWGNVTTLVHTADVILEFSGELPSGFHRHGYFNLRGKHGMSGHIKAENCTHIALIERKFMGMDTASILFFNKEGSAMLKIFLGRDDHRQLLSEQVSAFHTLAASLKEHA”, with “not failed”.
Consider “MSIADAEFAQAKTAQSAPTAAKPQLPPGVVTEGPLVKAKLRESYLLLGILYVGAVAGIIWAVTQGVGKVELFTFAWMFALTTFGIGAGMHRLFVHRSFRTGPIMRVFFCAIAQMAVQGSIAKWVANHRRHHLYADDVGDPHSPQFDGFGNRYVSALKGFLHAQGSWVFDQATTDNEYYAKDILADPIAMFFVRTRWVWYGMSAVFIPGFIGYVFGGVHTMIGCVLFSGLLRAYLLILVSQLTGSVCHAYGYRRFEVDDASTNEFVTTILTFGEGLHNNHHRFPRDAYISHAWWEIDLNGLIILGMEKIGLVHDVFHASHRQLERASEAQAASTR”, for which the protein production result is “failed”.
Then “MSIASLIGTVGGVGYLRPAPGTWGSLAALPLAWVLHQLGGFPLLALATLGAFVAGLWATRVMTAGQTDHDPSEIVIDEVAGQFLALWALSLPAWSHGIEISALWPGWIAAFVLFRLFDITKPGPVGWADRRGDPMGVMLDDIIAGLFAAIGTALLAALSHGVLGL”, with “failed”.
